Laboratory results taken from patent publication US20020160955A1.

Molecular target: T1, IGF-I F49A (G1S-A70V background) displayed on phage (human; bacteriophage M13)
T1 chain: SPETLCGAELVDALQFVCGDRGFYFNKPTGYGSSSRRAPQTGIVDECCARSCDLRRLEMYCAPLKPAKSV
Test: competitive phage ELISA; IC50mut/IC50 G1S-A70V
Settings: remark: other sources report otherwise

relative IC50: > 100
B1: human IGFBP-1, P08833 26-259 (protein, UniProt P08833 26-259, looked up)
chain: APWQCAPCSAEKLALCPPVSASCSEVTRSAGCGCCPMCALPLGAACGVATARCARGLSCRALPGEQQPLHALTRGQGACVQESDASAPHAAEAGSPESPESTEITEEELLDNFHLMAPSEEDHSILWDAISTYDGSKALHVTNIKKWKEPCRIELYRVVESLAKAQETSGEEISKFYLPNCNKNGFYHSRQCETSMDGEAGLCWCVYPWNGKRIPGSPEIRGDPNCQIYFNVQN
